Patent publication US20050148069A1, “IGF-1 instructs multipotent adult CNS neural stem cells to an oligodendroglial lineage” (priority 2003, published 2005)

Tested on: adult hippocampus-derived neural progenitor cells
Assay: in vitro differentiation analysis of neural progenitor cells (immunocytochemistry for lineage markers)
Type: cell-based, rat
Procedure: The neural progenitor cells isolated from the hippocampus of female Fischer 344 used in this study have been characterized previously (Gage et al., 1995; Palmer et al., 1997). The whole brain-derived neural stem cells from PIO ICR mice were isolated and cultured according to the methods as described, with slight modifications. Cells were cultured as previously described (Gage et al., 1995; Ray et al., 1993). Cells between passages 10 and 20 were used for in vitro differentiation analyses. To induce differentiation, cells were plated into 4-well chamber slides at a density of 55,000-75,000 cells per well and were allowed to proliferate in N2-supplemented (Invitrogen) DMEM:F12 (Omega Scientific) medium containing 20 ng/ml FGF-2 (PeproTech, Inc.) for 24 hours. FGF-2 was then withdrawn and cells were subsequently treated with differentiation media. […] For IGF-induction experiments, cells were trypsinized, washed with 1× PBS, and plated into insulin-free N2 medium. […] In some cultures, BrdU (2.5 μM, Sigma) was added to label dividing cells, and Q-VD-OPh (2 μM, Enzyme Systems Products) was added to prevent apoptosis.
Cells were fixed with 4% paraformaldehyde, followed by immunocytochemical staining as described (Palmer et al., 1999). Labeled cells were visualized using a Nikon E800 upright microscope or a Nikon E600 inverted microscope (Nikon Inc.) and a Spot RT CCD camera (Diagnostic Instruments Inc.). 4′,6-diamidino-2-phenylindole (DAPI) was used to identify individual cells. Quantification of cell phenotypes was with StereoInvestigator (MicroBrightfield Inc.); for each marker, 500-1000 cells were sampled systematically from standardized fields at 40×magnification. For quantification of live/dead cells, images were taken of cultures live-stained with propidum iodide (1 μg/ml; Molecular Probes) and Hoescht 33342 (1 μg/ml; Sigma) at 10×magnification, and cells were counted using Image-Pro (Media Cybernetics). The following primary antibodies were used: rabbit anti-Tuj1 (1:7500;Covance), mouse anti-RIP (1:25-1:75; Hybridoma Bank); guinea pig anti-GFAP (1:500-1:2500; Advanced Immunochemical, Inc.); rabbit anti-MBP (1:500; Chemicon International Inc.), rat anti-BrdU (1:400; Accurate). Secondary antibodies were all from Jackson ImmunoResearch and used at 1:250 dilution. The detection of BrdU in cultured cells required treatment in 2 N HCL at 37° C. for 30 min (Palmer et al., 1999). All experiments were independently replicated at least 3 times.

B1: Noggin: extracellular protein that binds BMP ligands, BMP antagonist (protein, UniProt Q13253 28-232, looked up)
Noggin: QHYLHIRPAPSDNLPLVDLIEHPDPIFDPKEKDLNETLLRSLLGGHYDPGFMATSPPEDRPGGGGGAAGGAEDLAELDQLLRQRPSGAMPSEIKGLEFSEGLAQGKKQRLSKKLRRKLQMWLWSQTFCPVLYAWNDLGSRFWPRYVKVGSCFSKRSCSVPEGMVCKPSKSVHLTVLRWRCQRRGGQRCGWIPIQYPIISECKCSC
- differentiation or survival effects of Noggin alone (500 ng/ml Noggin alone, insulin-free media): did not display any enhanced differentiation or survival effects
- reversal of BMP2 inhibition of oligodendrocyte differentiation (Noggin 500 ng/ml with BMP2 50 ng/ml and IGF-I 500 ng/ml): efficiently reversed the inhibitory effects of BMP signaling
- percentage of oligodendrocytes vs IGF-I alone (Noggin 500 ng/ml with IGF-I 20-100 ng/ml): significant increase in the percentage of oligodendrocytes
- percentage of RIP+ oligodendrocytes vs IGF-I alone (Noggin 500 ng/ml with IGF-I 500-1000 ng/ml): did not result in a significant change
